According to US20070110747A1 (Amgen, published 2007):

T1: rat sclerostin peptide KWWRPNGPDFRCIPDRYRAQRV (rat)
T1 construct: Coupled to the plate through its cysteine
T1 peptide: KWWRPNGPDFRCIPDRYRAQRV

T2: human sclerostin, mature form (signal peptide removed) (human, UniProt Q9BQB4 24-213)
T2 construct: 190 amino acid glycoprotein; also called SOST; recombinant human sclerostin
T2 sequence: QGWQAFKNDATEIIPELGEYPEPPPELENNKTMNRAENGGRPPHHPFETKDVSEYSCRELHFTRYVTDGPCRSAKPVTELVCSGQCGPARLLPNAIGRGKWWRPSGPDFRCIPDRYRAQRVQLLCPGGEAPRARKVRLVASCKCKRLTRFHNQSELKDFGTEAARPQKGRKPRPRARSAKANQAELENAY

B1: Antibody 19 (antibody, V domains shown)
VH: EVQLQQSGPELVKPGASVKMSCKASGFTFTDYIMHWVKQKPGQGLEWIGYINPYNDDTEYNEKFKGKATLTSDKSSSTAYMDLSSLTSEGSAVYYCARSIYYYDAPFAYWGQGTLVTVSS
VL: DIQMTQTTSSLSASLGDRVNISCRASQDISSYLNWYQQKPDGTVKLLIYSTSRLNSGVPSRFSGSGSGTDYSLTISNLAQEDIATYFCQQDIKHPTFGGGTKLELKR
notes: also called Ab-19
B2: Antibody 3 (antibody, mouse IgG1, kappa)
light: EIVLTQSPALMAASPGEKVTITCSVSSTISSNHLHWFQQKSDTSPKPWIYGTSNLASGVPVRFSGSGSGTSYSLTISSMEAEDAATYYCQQWSSYPLTFGAGTKLELRRADAAPTVSIFPPSSEQLTSGGASVVCFLNNFYPKDINVKWKIDGSERQNGVLNSWTDQDSKDSTYSMSSTLTLTKDEYERHNSYTCEATHKTSTSPIVKSFNRNEC
heavy: EVQLQQSGAELVRPGALVKLSCTASDFNIKDFYLHWMRQRPEQGLDWIGRIDPENGDTLYDPKFQDKATLTTDTSSNTAYLQLSGLTSETTAVYYCSREADYFHDGTSYWYFDVWGAGTTITVSSAKTTPPSVYPLAPGSAAQTNSMVTLGCLVKGYFPEPVTVTWNSGSLSSGVHTFPAVLQSDLYTLSSSVTVPSSTWPSETVTCNVAHPASSTKVDKKIVPRDCGCKPCICTVPEVSSVFIFPPKPKDVLTITLTPKVTCVVVDISKDDPEVQFSWFVDDVEVHTAQTQPREEQFNSTFRSVSELPIMHQDWLNGKEFKCRVNSAAFPAPIEKTISKTKGRPKAPQVYTIPPPKEQMAKDKVSLTCMITDFFPEDITVEWQWNGQPAENYKNTQPIMDTDGSYFIYSKLNVQKSNWEAGNTFTCSVLHEGLHNHHTEKSLSHSPGK
notes: also called Ab-3
B3: Antibody A (antibody, mouse IgG1, kappa, V domains shown)
VH: QSLEESGGRLVTPGTPLTLTCTASGFSLSSYWMNWVRQAPGEGLEWIGTIDSGGRTDYASWAKGRFTISRTSTTMDLKMTSLTTGDTARYFCARNWNLWGQGTLVTVSS
VL: AQVLTQTPASVSAAVGGTVTINCQSSQSVYDNNWLAWFQQKPGQPPKLLIYDASDLASGVPSRFSGSGSGTQFTLTISGVQCADAATYYCQGAYNDVIYAFGGGTEVVVKR
notes: Rabbit-mouse chimeric antibody; mature chains (signal peptides cleaved off); also called Ab-A; Mab-A
B4: Antibody 13 (antibody, mouse IgG1, kappa, V domains shown)
VH: EVQLQQSGPELVKPGASVKMSCKASGYTFTDYYMNWVKQSHGESLEWIGDINPYNDDTTYNHKFKGKATLTVDKSSNTAYMQLNSLTSEDSAVYYCARETAVITTNAMDYWGQGTSVTVSS
VL: QIVLTQSPAIMSASPGEKVTMTCRASSSVTSSYLNWYQQKPGSSPKLWIYSTSNLASGVPARFSGSGSGTSYSLTISSVEAEDAATYYCQQYDFFPSTFGGGTKLEIKR
notes: … = EVQ); also called Ab-13
B5: Antibody 4 (antibody, mouse IgG1, kappa, V domains shown)
VH: EVQLQQSGPELMKPGASVKMSCKASGYTFTDYNMHWVKQNQGKTLEWIGEINPNSGGAGYNQKFKGKATLTVDKSSTTAYMELRSLTSEDSAVYYCARLGYDDIYDDWYFDVWGAGTTVTVSS
VL: DIQMTQITSSLSASLGDRVSISCRASQDISNYLNWYQQKPDGTFKLLIFYTSRLLSGVPSRFSGSGSGTDYSLTIYNLEQEDFATYFCQQGDTLPYTFGGGTKLEIKR
notes: also called Ab-4

Biological target: T1, rat sclerostin peptide …
Assay: ELISA on rat sclerostin peptides coupled to sulfhydryl binding plates, antibody at 1 ug/ml
Procedure: A series of overlapping peptides (each peptide being approximately 20-25 amino acids long) were synthesized based on the known amino acid sequence of rat sclerostin (SEQ ID NO:98). […] This enabled the peptides to be bound to the assay plates by covalent coupling, using commercially available sulfhydryl binding plates (Costar), at a concentration of […], in phosphate buffered saline (PBS: pH 6.5) containing 1 mM EDTA. Following incubation for 1 hour at room temperature, the plates were washed three times with PBS containing 0.5% Tween 20. The plates were blocked by incubation with a PBS solution containing 0.5% fish skin gelatin (Sigma) for 30 minutes at room temperature and then washed three times in PBS containing 0.5% Tween 20.
Antibodies to be tested were diluted to 1 μg/ml in PBS containing 0.5% fish skin gelatin and incubated with the peptide-coated plates for 1 hour at room temperature. Excess antibody was removed by three washes with PBS, 0.5% Tween 20. […] Finally the plates were incubated with a horseradish peroxidase chromogenic substrate (TMB-Stable Stop, RDI) for 5 minutes at room temperature, the color development was stopped with acid, and the plates' optical density measured at 450 nm.

B1: binds.

biological target: T2, human sclerostin, mature form (signal …); assay: Biacore cross-blocking on immobilised human sclerostin; RU of 1:1 mixture, competitor Ab-19
Procedure: (§1) The antibodies to be tested were diluted to a concentration of 200 ug/ml in HBS-EP buffer (being 10 mM HEPES pH 7.4, 150 mM NaCl, 3 mM EDTA, 0.005% (v/v) Surfactant P20) and then mixed in a one to one molar ratio (on a binding site basis) to generate the test mixture. This test mixture thus contained each antibody at a concentration of 100 ug/ml (1.3 um on a binding site basis). Separate solutions containing each of the antibodies in the test mix alone were also prepared. These solutions contained the individual antibodies in HBS-EP buffer at a concentration of 100 ug/ml (1.3 um on a binding site basis).
(§2) 20 μL of the test mixture was passed over the sclerostin-coated chip at a flow rate of 10 μL/min and the amount of binding recorded. The chip was then treated with two 60 second pulses of 30 mM HCl to remove all of the bound antibody. A solution containing only one of the antibodies of the test mixture (at 1.3 μM in the same buffer as the test mixture on a binding site basis) was then passed over the chip in the same manner as the test mixture and the amount of binding recorded. The chip was again treated to remove all of the bound antibody and finally a solution containing the other antibody from the test mixture alone (at 1.3 μM in the same buffer as the test mixture on a binding site basis) was passed over the chip and the amount of binding recorded.
(§3) The table below show the results from cross-blocking assays on a range of different antibodies. The values in each square of the table represent the amount of binding (in RU) seen when the antibodies (at 1.3 μM on a binding site basis) or buffer indicated in the top row of the table were mixed with the antibodies (at 1.3 uM on a binding site basis) or buffer indicated in the first column of the table.

First: B2
Second: B3
The “binding (RU)” value of the first is higher: 896 RU for the first, 868 RU for the second.

Going from B4 to B5, the “binding (RU)” value falls from 1040 RU to 822 RU.

biological target: T2, human sclerostin, mature form (signal …); assay: Biacore cross-blocking on immobilised human sclerostin; RU of 1:1 mixture, competitor Ab-13
Procedure: as §1, §2, §3

First: B2
Second: B3
The “binding (RU)” value of the first is lower: 428 RU for the first, 1080 RU for the second.

B5 and B1 are the same in “binding (RU)” value: 1020 RU for the first, 1020 RU for the second.

biological target: T2, human sclerostin, mature form (signal …); assay: Biacore cross-blocking on immobilised human sclerostin; RU of 1:1 mixture, competitor Ab-4
Procedure: as §1, §2, §3

Compared with B2, B3 is lower in “binding (RU)” value: 845 RU for the first, 833 RU for the second.

Going from B4 to B1, the “binding (RU)” value falls from 1010 RU to 789 RU.

biological target: T2, human sclerostin, mature form (signal …); assay: Biacore cross-blocking on immobilised human sclerostin; RU of 1:1 mixture, competitor Ab-A
Procedure: as §1, §2, §3

Compared with B2, B4 is higher in “binding (RU)” value: 952 RU for the first, 1110 RU for the second.

Compared with B5, B1 is higher in “binding (RU)” value: 860 RU for the first, 863 RU for the second.

biological target: T2, human sclerostin, mature form (signal …); assay: Biacore cross-blocking on immobilised human sclerostin; RU of 1:1 mixture, competitor Ab-3
Procedure: as §1, §2, §3

Compared with B3, B4 is lower in “binding (RU)” value: 946 RU for the first, 432 RU for the second.

Going from B5 to B1, the “binding (RU)” value rises from 869 RU to 892 RU.
